Laboratory results published in patent US20170189519A1.

Legend:
Test in all cases: ELISA, coated CR6261, P. pastoris medium
Settings in all cases: remark: other sources report otherwise
[1] = biological target: 101D4 (influenza A H1N1 A/Brisbane/59/2007)
[2] = biological target: 112G6 (influenza A H1N1 A/Brisbane/59/2007)
[3] = biological target: 123G2 (influenza A H1N1 A/Brisbane/59/2007)
[4] = biological target: 126C3 (influenza A H1N1 A/Brisbane/59/2007)
[5] = biological target: 129C2 (influenza A H1N1 A/Brisbane/59/2007)
[6] = biological target: 13185 (influenza A H1N1 A/Brisbane/59/2007)
[7] = biological target: 131D5 (influenza A H1N1 A/Brisbane/59/2007)
[8] = biological target: 137C5 (influenza A H1N1 A/Brisbane/59/2007)
[9] = biological target: 138F11 (influenza A H1N1 A/Brisbane/59/2007)
[10] = biological target: 145C9 (influenza A H1N1 A/Brisbane/59/2007)
[11] = biological target: 145E8 (influenza A H1N1 A/Brisbane/59/2007)
[12] = biological target: 148D5 (influenza A H1N1 A/Brisbane/59/2007)
[13] = biological target: 171E5 (influenza A H1N1 A/Brisbane/59/2007)
[14] = biological target: 174G3 (influenza A H1N1 A/Brisbane/59/2007)
[15] = biological target: 182G8 (influenza A H1N1 A/Brisbane/59/2007)
[16] = biological target: 187C6 (influenza A H1N1 A/Brisbane/59/2007)
[17] = biological target: 187H10 (influenza A H1N1 A/Brisbane/59/2007)
[18] = biological target: 188F4 (influenza A H1N1 A/Brisbane/59/2007)
[19] = biological target: 18987 (influenza A H1N1 A/Brisbane/59/2007)
[20] = biological target: 193B6 (influenza A H1N1 A/Brisbane/59/2007)
[21] = biological target: 194C8 (influenza A H1N1 A/Brisbane/59/2007)
[22] = biological target: 194E4 (influenza A H1N1 A/Brisbane/59/2007)
[23] = biological target: 213B2 (influenza A H1N1 A/Brisbane/59/2007)
[24] = biological target: 214C4 (influenza A H1N1 A/Brisbane/59/2007)
[25] = biological target: 220C9 (influenza A H1N1 A/Brisbane/59/2007)
[26] = biological target: 230G9 (influenza A H1N1 A/Brisbane/59/2007)
[27] = biological target: 233F11 (influenza A H1N1 A/Brisbane/59/2007)
[28] = biological target: 243D6 (influenza A H1N1 A/Brisbane/59/2007)
[29] = biological target: 24782 (influenza A H1N1 A/Brisbane/59/2007)
[30] = biological target: 25304 (influenza A H1N1 A/Brisbane/59/2007)
[31] = biological target: 264G4 (influenza A H1N1 A/Brisbane/59/2007)
[32] = biological target: 271F10 (influenza A H1N1 A/Brisbane/59/2007)
[33] = biological target: 284B9 (influenza A H1N1 A/Brisbane/59/2007)
[34] = biological target: 304G11 (influenza A H1N1 A/Brisbane/59/2007)
[35] = biological target: 307A10 (influenza A H1N1 A/Brisbane/59/2007)

B1: CR6261 (antibody, V domains shown)
VH: EVQLVESGAEVKKPGSSVKVSCKASGGPFRSYAISWVRQAPGQGPEWMGGIIPIFGTTKYAPKFQGRVTITADDFAGTVYMELSSLRSEDTAMYYCAKHMGYQVRETMDVWGKGTTVTVSS
VL: QSVLTQPPSVSAAPGQKVTISCSGSSSNIGNDYVSWYQQLPGTAPKLLIYDNNKRPSGIPDRFSGSKSGTSATLGITGLQTGDEANYYCATWDRRPTAYVVFGGGTKLTVLG
CR6261 binding signal [1]: 337000 | CR6261 binding signal [2]: 544000 | CR6261 binding signal [3]: 499000 | CR6261 binding signal [4]: 220000 | CR6261 binding signal [5]: 199000 | CR6261 binding signal [6]: 844000 | CR6261 binding signal [7]: 345000 | CR6261 binding signal [8]: 296000 | CR6261 binding signal [9]: 148000 | CR6261 binding signal [10]: 182000 | CR6261 binding signal [11]: 212000 | CR6261 binding signal [12]: 329000 | CR6261 binding signal [13]: 880000 | CR6261 binding signal [14]: 491000 | CR6261 binding signal [15]: 400000 | CR6261 binding signal [16]: 345000 | CR6261 binding signal [17]: 299000 | CR6261 binding signal [18]: 287000 | CR6261 binding signal [19]: 336000 | CR6261 binding signal [20]: 207000 | CR6261 binding signal [21]: 242000 | CR6261 binding signal [22]: 409000 | CR6261 binding signal [23]: 132000 | CR6261 binding signal [24]: 302000 | CR6261 binding signal [25]: 1.09e+06 | CR6261 binding signal [26]: 855000 | CR6261 binding signal [27]: 583000 | CR6261 binding signal [28]: 132000 | CR6261 binding signal [29]: 415000 | CR6261 binding signal [30]: 396000 | CR6261 binding signal [31]: 181000 | CR6261 binding signal [32]: 315000 | CR6261 binding signal [33]: 1.66e+06 | CR6261 binding signal [34]: 111000 | CR6261 binding signal [35]: 115000
